This is an account of results in US20260234247A1 (published 2026).

In one assay the target is T1, human LILRB1 Variant 3 (human, UniProt Q8NHL6 24-458, limits assumed).
T1 construct: protein bought from Kactusbio, LLC
Briefly: ELISA (FIG. 12C). Background: An ELISA detects its analyte on a solid surface through an enzyme-linked reagent.

The target of a further assay is T2, human LILRB1 Variant 2 (human, UniProt Q8NHL6 24-458, limits assumed).
T2 construct: protein bought from Kactusbio, LLC (Cat: LIL-HM2V1 and LIL-HM2V2 for Variant 2 and 3)
T2 sequence (Q8NHL6 other isoform, or with tags, fused parts or gaps mutant limits assumed): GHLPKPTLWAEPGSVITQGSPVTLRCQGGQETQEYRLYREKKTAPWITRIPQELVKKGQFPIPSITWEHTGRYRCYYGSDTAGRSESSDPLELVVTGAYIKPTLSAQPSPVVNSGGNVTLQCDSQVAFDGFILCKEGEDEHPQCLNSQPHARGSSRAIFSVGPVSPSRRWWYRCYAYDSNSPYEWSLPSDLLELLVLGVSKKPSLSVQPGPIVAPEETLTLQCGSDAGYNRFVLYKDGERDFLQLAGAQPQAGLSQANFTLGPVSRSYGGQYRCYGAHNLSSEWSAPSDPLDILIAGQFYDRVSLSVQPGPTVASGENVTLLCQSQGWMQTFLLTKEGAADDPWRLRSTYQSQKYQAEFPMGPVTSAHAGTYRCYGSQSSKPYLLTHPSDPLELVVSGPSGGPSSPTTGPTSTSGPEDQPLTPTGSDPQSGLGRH
Briefly: ELISA (FIG. 12B).

The target of assay [1] is T3, human LILRA3 (human, UniProt Q8N6C8 24-439).
T3 construct: bought protein coated for ELISA; also called hLILRA3
Briefly: ELISA, OD450, antibody at 200 nM; + = 2-fold over ISO.
T3 sequence (Q8N6C8 24-439 limits assumed): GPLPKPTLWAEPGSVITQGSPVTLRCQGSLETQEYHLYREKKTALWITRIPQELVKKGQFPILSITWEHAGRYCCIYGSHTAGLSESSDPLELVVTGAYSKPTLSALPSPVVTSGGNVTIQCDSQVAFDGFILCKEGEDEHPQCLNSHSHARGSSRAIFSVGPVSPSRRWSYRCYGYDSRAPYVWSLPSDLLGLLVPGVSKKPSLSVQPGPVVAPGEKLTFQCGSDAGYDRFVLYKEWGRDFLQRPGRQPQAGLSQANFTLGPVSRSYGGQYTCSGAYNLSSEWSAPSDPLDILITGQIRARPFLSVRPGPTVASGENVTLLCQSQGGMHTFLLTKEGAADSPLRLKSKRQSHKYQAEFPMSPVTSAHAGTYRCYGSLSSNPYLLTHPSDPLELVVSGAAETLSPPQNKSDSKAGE
Experimental: (§1) To further confirm binding affinity, selected clones were assayed in ELISA or FACS in a range of testing concentrations.

The target in a further assay is T4, human LILRB3 (human, UniProt O75022 24-443).
T4 construct: bought protein coated for ELISA; also called hLILRB3
Described as above.

Another assay concerns the target T5, human LILRB5 (human, UniProt O75023 24-458).
T5 construct: bought protein coated for ELISA; also called hLILRB5
The description is as above.

The target in assay [2] is T6, human LILRA1 (human, UniProt O75019 17-461, limits assumed).
T6 construct: bought protein coated for ELISA; also called hLILRA1
The description is as above.
T6 sequence (O75019 17-461 limits assumed): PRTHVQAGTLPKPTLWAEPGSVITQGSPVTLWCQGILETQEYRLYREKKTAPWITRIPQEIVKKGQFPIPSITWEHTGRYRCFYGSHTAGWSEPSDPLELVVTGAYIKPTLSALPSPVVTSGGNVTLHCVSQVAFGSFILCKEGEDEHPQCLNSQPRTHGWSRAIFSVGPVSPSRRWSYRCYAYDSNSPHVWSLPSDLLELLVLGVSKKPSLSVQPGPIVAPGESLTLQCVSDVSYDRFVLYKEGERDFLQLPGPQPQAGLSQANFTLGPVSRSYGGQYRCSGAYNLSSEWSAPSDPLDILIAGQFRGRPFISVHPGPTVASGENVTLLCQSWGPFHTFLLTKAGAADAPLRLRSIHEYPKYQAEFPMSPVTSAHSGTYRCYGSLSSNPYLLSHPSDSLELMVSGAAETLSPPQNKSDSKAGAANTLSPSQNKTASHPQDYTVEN
Experimental: as §1

The target in another assay is T7, human LILRA4 (human, UniProt P59901 24-446).
T7 construct: bought protein coated for ELISA; also called hLILRA4
T7 sequence (P59901 24-446 limits assumed): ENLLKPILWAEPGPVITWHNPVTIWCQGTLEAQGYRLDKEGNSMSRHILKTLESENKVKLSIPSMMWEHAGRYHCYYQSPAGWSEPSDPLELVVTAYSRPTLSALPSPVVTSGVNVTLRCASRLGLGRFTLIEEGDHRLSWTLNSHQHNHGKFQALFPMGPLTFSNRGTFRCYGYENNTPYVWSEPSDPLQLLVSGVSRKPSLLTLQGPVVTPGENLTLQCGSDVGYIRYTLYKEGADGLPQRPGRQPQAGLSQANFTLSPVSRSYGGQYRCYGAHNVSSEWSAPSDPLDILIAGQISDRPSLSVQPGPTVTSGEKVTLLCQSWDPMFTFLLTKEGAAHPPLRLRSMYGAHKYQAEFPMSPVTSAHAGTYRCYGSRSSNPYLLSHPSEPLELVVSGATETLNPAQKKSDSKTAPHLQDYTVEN
Described as above.

Assay [3] concerns the target T8, human LILRA2 (human, UniProt Q8N149 24-449).
T8 construct: bought protein coated for ELISA; also called hLILRA2
The assay is described as above.
T8 sequence (Q8N149 24-449 limits assumed): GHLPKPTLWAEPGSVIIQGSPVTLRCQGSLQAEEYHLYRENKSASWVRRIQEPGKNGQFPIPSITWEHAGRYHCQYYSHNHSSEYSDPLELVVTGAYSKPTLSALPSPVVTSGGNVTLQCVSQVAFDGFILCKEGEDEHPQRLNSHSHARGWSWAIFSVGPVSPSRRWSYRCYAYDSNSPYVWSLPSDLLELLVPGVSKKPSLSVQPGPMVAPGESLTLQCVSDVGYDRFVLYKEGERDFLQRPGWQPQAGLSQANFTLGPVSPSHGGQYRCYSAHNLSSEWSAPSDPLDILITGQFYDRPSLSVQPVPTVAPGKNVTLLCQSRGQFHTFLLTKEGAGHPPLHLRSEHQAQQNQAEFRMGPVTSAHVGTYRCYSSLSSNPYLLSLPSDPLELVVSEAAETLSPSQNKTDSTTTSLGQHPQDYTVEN
Experimental: as §1

In assay [4] the target is T9, human LILRA1 (human, UniProt O75019 17-461, limits assumed).
T9 construct: bought protein coated for ELISA; also called hLILRA1
The assay is described as above. The source holds these as a separate data set.
T9 sequence (O75019 17-461 limits assumed): as the sequence (O75019 17-461 limits assumed) above
Experimental: as §1

Assay [5] concerns the target T10, human LILRA3 (human, UniProt Q8N6C8 24-439).
T10 construct: bought protein coated for ELISA; also called hLILRA3
The assay is described as above. This is another data set of the same source.
T10 sequence (Q8N6C8 24-439 limits assumed): as the sequence (Q8N6C8 24-439 limits assumed) above
Experimental: as §1

In assay [6] the target is T11, Biotinylated LILRB1 (UniProt Q8NHL6 24-458, limits assumed, biotinylated (sites not given)). Briefly: epitope binning ELISA, coated 1 ug/ml; competitor LK-RB1-12 at 20 ug/ml.
T11 sequence (Q8NHL6 24-458 limits assumed): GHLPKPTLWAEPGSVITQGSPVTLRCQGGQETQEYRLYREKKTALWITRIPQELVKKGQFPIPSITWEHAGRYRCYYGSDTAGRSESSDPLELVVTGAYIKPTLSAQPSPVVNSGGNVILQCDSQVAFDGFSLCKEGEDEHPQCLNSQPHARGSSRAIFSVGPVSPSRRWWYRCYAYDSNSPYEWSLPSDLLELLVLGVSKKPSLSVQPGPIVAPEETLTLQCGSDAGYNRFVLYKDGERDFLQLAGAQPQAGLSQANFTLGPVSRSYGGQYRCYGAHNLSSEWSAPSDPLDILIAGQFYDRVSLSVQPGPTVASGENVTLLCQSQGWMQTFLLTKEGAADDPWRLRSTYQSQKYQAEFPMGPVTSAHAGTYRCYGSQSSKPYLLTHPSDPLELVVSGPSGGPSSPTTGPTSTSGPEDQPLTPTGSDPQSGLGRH
In assay [7] the target is T11, Biotinylated LILRB1. Briefly: epitope binning ELISA, coated 1 ug/ml; competitor LK-RB1-16 at 20 ug/ml.
Experimental: (§2) Binding epitope of a subset of anti-LILRB1 and anti-LILRB2 antibodies was analyzed by epitope binning ELISA. Briefly, a panel of testing antibodies were coated onto ELISA plate. 50 ul/well Biotinylated LILRB1 or LILRB2 and 50 ul/well of competing antibodies were added to the coated plate and incubated at 37° C. for 1 hour. After Streptavidin-HRP (1:5000) incubation and TMB development, the plates were read at 450 nm using Molecular device spectra max plus384.
Assay [8] has as its target T11, Biotinylated LILRB1. Briefly: epitope binning ELISA, coated 1 ug/ml; competitor LK-RB1-33 at 20 ug/ml.
Experimental: as §2
Assay [9] deals with T11, Biotinylated LILRB1. Briefly: epitope binning ELISA, coated 1 ug/ml; competitor hz73D1.v1 at 20 ug/ml.
Experimental: as §2
The target in assay [10] is T11, Biotinylated LILRB1. Briefly: epitope binning ELISA, coated 1 ug/ml; competitor LK-RB1-31 at 20 ug/ml.
Experimental: as §2
The target of assay [11] is T11, Biotinylated LILRB1. Briefly: epitope binning ELISA, coated 1 ug/ml; competitor 15G8 at 20 ug/ml.
Experimental: as §2
Assay [12] has as its target T11, Biotinylated LILRB1. Briefly: epitope binning ELISA, coated 1 ug/ml; competitor LK-RB1-47 at 20 ug/ml.
Experimental: as §2
Assay [13] has as its target T11, Biotinylated LILRB1. Briefly: epitope binning ELISA, coated 1 ug/ml; competitor LK-RB1-9 at 20 ug/ml.
Experimental: as §2
In assay [14] the target is T12, human LILRA1 (human, UniProt O75019 17-461, limits assumed).
T12 construct: also called hLILRA1
Briefly: Octet off-rate ranking.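 Also: antibody dissociation rate constants against cynomolgus LILRB2 plus human LILRB1, LILRB2, LILRA1 and LILRA2, measured on an Octet instrument to rank binding.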 A general note: In BLI a coated tip is dipped into the sample, and binding shifts an interference pattern.
T12 sequence (O75019 17-461 limits assumed): as the sequence (O75019 17-461 limits assumed) above
Text: Binding affinity of anti-LILRB1 and anti-LILRB2 antibodies against human LILRB1, LILRB2, LILRA1, LILRA2 and cynomolgus LILRB2 was ranked by measuring dissociation rate constant (Kdis) using the Octet system.

Another assay has as its target T13, human LILRB1 (human, UniProt Q8NHL6 24-458, limits assumed).
T13 construct: also called hLILRB1
Briefly: Octet off-rate ranking.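 Also: antibody dissociation rate constants against cynomolgus LILRB2 plus human LILRB1, LILRB2, LILRA1 and LILRA2, measured on an Octet instrument to rank binding.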

The target in assay [15] is T14, human LILRA1 (human, UniProt O75019 17-461, limits assumed).
T14 construct: Bought protein; also called hLILRA1
Briefly: ELISA, 200 nM antibody, OD450; + = 2-fold over ISO.
T14 sequence (O75019 17-461 limits assumed): as above
Experimental: as §1

The target in assay [16] is T15, human LILRA2 (human, UniProt Q8N149 24-449).
T15 construct: Bought protein; also called hLILRA2
Briefly: ELISA, 200 nM antibody, OD450; + = 2-fold over ISO.
T15 sequence (Q8N149 24-449 limits assumed): as the sequence (Q8N149 24-449 limits assumed) above
Experimental: as §1

The target in a further assay is T16, human LILRB4 (human, UniProt Q8NHJ6 22-259).
T16 construct: Bought protein; also called hLILRB4
Briefly: ELISA, antibody at 200 nM, OD450; + = 2-fold over ISO.

Assay [17] addresses T17, human LILRA1 (human, UniProt O75019 17-461, limits assumed).
T17 construct: Bought protein; also called hLILRA1
Described as above.
T17 sequence (O75019 17-461 limits assumed): as the sequence (O75019 17-461 limits assumed) above
Experimental: as §1

Substitutions are numbered along the chain they refer to.

T1 sequence (Q8NHL6 other isoform, or with tags, fused parts or gaps mutant limits assumed): as the sequence (Q8NHL6 24-458 limits assumed) above, with L45P, I119T, S132I counted along it
T5 sequence (O75023 24-458 limits assumed): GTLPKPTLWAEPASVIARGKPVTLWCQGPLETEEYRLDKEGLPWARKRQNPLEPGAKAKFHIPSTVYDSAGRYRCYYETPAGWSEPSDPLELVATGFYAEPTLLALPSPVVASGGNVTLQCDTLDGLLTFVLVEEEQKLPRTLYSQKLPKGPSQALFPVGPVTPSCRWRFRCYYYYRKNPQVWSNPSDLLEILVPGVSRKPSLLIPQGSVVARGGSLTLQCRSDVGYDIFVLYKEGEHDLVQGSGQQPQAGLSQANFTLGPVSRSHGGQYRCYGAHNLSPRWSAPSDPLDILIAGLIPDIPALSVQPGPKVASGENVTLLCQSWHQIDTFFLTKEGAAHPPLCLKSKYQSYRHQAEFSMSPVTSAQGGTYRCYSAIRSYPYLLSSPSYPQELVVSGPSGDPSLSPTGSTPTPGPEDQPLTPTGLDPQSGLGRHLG
T13 sequence (Q8NHL6 24-458 limits assumed): as the sequence (Q8NHL6 24-458 limits assumed) above
Experimental for human LILRA4: as §1
Experimental for human LILRB3: as §1
Experimental for human LILRB4: as §1
Experimental for human LILRB5: as §1

B1: LK-RB1-9.h1 (antibody, human IgG4, kappa, V domains shown)
VH: QVQLVQSGSELKKPGASVKVSCKASGYTFTTYGMSWVRQAPGQGLEWMGWINTYSGVPTYADDFKGRFVFSLDTSVSTAYLQISSLKAEDTAVYYCARRRRTYHGYLSFDYWGQGTTVTVSS
VL: DIQMTQSPSSLSASVGDRVTITCETSENIYGALNWYQQKPGKAPKLLIYGATNLAEGVPSRFSGSGSGTDFTFTISSLQPEDIATYYCQNVLNTPWTFGGGTKLEIKR
notes: humanized LK-RB1-9
As to B1, the binding result with human LILRB1 Variant 3 and in the assay with human LILRB1 Variant 2 was “binds” in each case.

B2: LK-RB1-39 (antibody, human IgG4 S228P, kappa, V domains shown)
VH: EVQLQQSGAELVRPGASVKLSCTASGFNIKDDYVHWVNQRPEQGLEWIGWIDPENGDTGYASKFQDKATITADTSSNTAYLHLSSLTSEDTAVYYCTTTRWTGSYWGQGTTLTVSS
VL: QIVLTQSPAIMSASPGEKVTITCSASSSVNYMHWFQQKPGSSPKLWIYSTANLASGVPARFSGSGSGTSYSLTISRMEAEDAATYYCQQRSSYPPTWTFGGGTKLEIKR
notes: anti-LILRB1 clone from mouse hybridoma
In the case of B2, the binding result with human LILRA3 [1], with human LILRB3, with human LILRB5 and with human LILRA1 [2] was “binds” in each case.

B3: LK-RB1-2 (antibody, human IgG4 S228P, kappa, V domains shown)
VH: QIQLVQSGPELKKPGETVKISCKASGYTFTTYGVSWVKQAPGKGLKWMGWINTYSGVSTYSDDFKGRFAFSLETSASTAYLQIINLKNEDAATYFCSRRRRTYDGYLSFDYWGQGTTLTVSS
VL: DIQMTQSPGSLSASVGETVTITCGASENIYGALNWFQRKPGKSPQLLIYGATNLADGMSSRFSGSGSGRQYSLQISSLRPDDVATYYCQNVLTTPWTFGGGTKVEIKR
notes: anti-LILRB1 antibody
B3: in the assay with human LILRA4, the binding result is “binds”.

B4: LK-RB1-13 (antibody, human IgG4 S228P, kappa, V domains shown)
VH: QVTLKESGPGIVKPSQTLSLTCSFSGFSLSISGTGIGWIRQPSGKGLEWLAHIWWDDDKYYNPSLKSQVTISKDTSTKQVFLNITSVDTADTATYYCTRTELGRGDFWGQGTSVTVSS
VL: DILLTQSPAILSVSPGDRVSFSCRASQSTGTNIHWYQRRTNGSPRLLIKYGSESISGIPSRFSGSGTGTDFTLTINSVESEDIADYYCQQSYSWPYTFGGGTKLEIKR
notes: anti-LILRB1 antibody
With B4, the binding result with human LILRA2 [3] is on record as “binds”.

B5: LK-RB1-15 (antibody, human IgG4 S228P, kappa, V domains shown)
VH: B4 VH
VL: B4 VL with T29I
notes: anti-LILRB1 antibody
Take B5: the binding result with human LILRA1 [4] and in the assay with human LILRA3 [5] was “binds” each time.

B6: LK-RB1-16.h3 (antibody, human IgG4, kappa, V domains shown)
VH: QVQLQESGPGLVKPSETLSLTCTVSGFSLISNAISWIRQPPGKGLEWLGVIWGDGNTIYHSALRSRLTISKDTSKNQVFLKLSSVTAADTAVYYCAKANWDGYYFDYWGQGTTVTVSS
VL: DIQMTQSPSTLSASVGDRVTITCHASQSVDFWLNWYQQKPGKAPKLLISKASNLHTGVPSRFSGSGSGTEFTLTISSLQPDDFATYYCQQGQSYPLTFGQGTKLEIKR
notes: humanized LK-RB1-16
For B6, the binding result with human LILRB1 Variant 3 and with human LILRB1 Variant 2 was “binds” each time.

B7: LK-RB1-11 (antibody, human IgG4 S228P, kappa, V domains shown)
VH: QVTLKESGPGILQPSQTLSLTCSFSGFSLKTSGMSVGWIRQPSGKGLEWLAHIWWNDDKYYNPVLKGRLTISKDTSNNLVFLKIASVVSTDTATYYCVRYGNSHGYWYFDVWGTGTTVTVSS
VL: NIVLTQSPASLAVSLGQRATISCRASESVDSYGNNFIHWYQQKPGQPPKVLIYYASNLEAGVPARFSGSGSRTDFTLTIDPVEAEDAATYYCQQNNEDPYTFGGGTKLEIER
notes: anti-LILRB1 antibody
For the molecule B7, the binding result with human LILRA1 [4] and in the assay with human LILRA3 [5] was “binds” in each case.

B8: hz73D1.v1 (antibody, human IgG4 S228P, kappa, V domains shown)
VH: QVQLVQSGAEVKKPGASVKVSCKASGYTFTDYYINWVRQAPGQGLEWMGNVNPNDGGTTYNQKFKGRVTMTTDTSTSTAYMELRSLRSDDTAVYYCARREIYFYGTIYYYAMDYWGQGTLVTVSS
VL: DIQLTQSPSFLSASVGDRVTITCRASESVDYYGNSFMYWYQQKPGKAPKLLIYFASNLESGVPSRFSGSGSGTEFTLTISSLQPEDFATYYCQQNNEDPWTFGGGTKVEIKR
In general, koff refers to the first-order rate constant of dissociation. Regarding B8, the Inhibition % with Biotinylated LILRB1 [6] is 82.8%; with Biotinylated LILRB1 [7], 61.2%; with Biotinylated LILRB1 [8], 23.5%; with Biotinylated LILRB1 [9] it was 31.4%; with Biotinylated LILRB1 [10], 41.6%; with Biotinylated LILRB1 [11] it was -3.83%. The Inhibition % in the assay with Biotinylated LILRB1 [12] came out at 46.9%; with Biotinylated LILRB1 [13], 57.4%. The koff with human LILRA1 [14] came out at 7.52e-06 s⁻¹; in the assay with human LILRB1, 5.18e-05 s⁻¹.

B9: LK-RB1-45 (antibody, human IgG4 S228P, kappa, V domains shown)
VH: QVQLQQSGTELARPGASVKLSCKASGYTFTNFWMHWIKQRPGQGLEWIGYVNPTSDYTKYNQKFKDKATLTADKSSSTAYMQLNSLTYEDSAVYYCTRSSLYDTNYVFDSWGQGTTLTVSS
VL: DILLTQSPAILSVSPGERVSFSCRASQSIGRSIHWYQQRTNGSPRLLIKYASESISGIPSRFSGGGSGTDFTLSISNVESEDIADYYCQQSNNWPFTFGSGTKLEIKR
notes: as for B2
With B9, the binding result in the assay with human LILRA3 [1] is given as “binds”.

B10: LK-RB2-29 (antibody, human IgG4 S228P, kappa, V domains shown)
VH: QVQLQQSGAELARPGASVKLSCKASGYTFTSYWMQWVKQRPGQGLEWIGAIYPGDGDTRYTQKFKGKATLTADKSSSTAYMQLSSLASEDSAVYYCARGYYGSSYADYFDYWGQGTTLTVSS
VL: DIQMTQSPASLSASVGETVTITCRASGNIHNYLAWYQQKQGKSPQLLVYNAKTLADGVPSRFSGSGSGTQYSLKINSLQPEDFGSYYCQHFWSTPPTFGGGTKLEIKR
For B10, the binding result with human LILRA1 [15] and in the assay with human LILRA2 [16] was “binds” each time.

B11: LK-RB2-12 (antibody, human IgG4 S228P, kappa, V domains shown)
VH: QIQLVQSGPELKKPGETVKISCKASGYTFTTYGMSWVKQTPGKGLKWMGWINIYSGVPTYADDFKGRFVFSLEISASTAHLQINNLKNEDTATYFCARRKDYSGHCFDYWGQGTTLTVSS
VL: DIVLTQSPASLAVSPGQRATISCRASESVDTYGISFMHWYQQKPGQPPKLLIYRASNLESGIPARFSGSGSRTDFTLTINPVETDDVAIYYCQQSKKDPYTFGGGTKLEIKR
B11: the binding result with human LILRB4 and in the assay with human LILRA1 [17] was “binds” in each case.

B12: LK-RB2-15 (antibody, human IgG4 S228P, kappa, V domains shown)
VH: B11 VH with T40A, I53V, V69A, H80Y, N88D
VL: B11 VL with P15L, I21F, I89T, D98E
For the molecule B12, the binding result with human LILRB4 and in the assay with human LILRA1 [17] was “binds” each time.
